This passage reports self-cleavage results from the RNAGym collection of RNA variant scans (doi:10.7554/elife.80360).

B1: Hammerhead Ribozyme (parent)
chain: ACCGGAUGUGCUUUCCGGUCUGAUGAGUCCGUGAGGACGAAACAG

The series covers variants of B1. As to the kind of experiment: self-cleavage, relative activity (ratio to wild type); higher = more cleavage; co-transcriptional.
As to ACCGGAUGUGCUUUCCGCUCUCAUGAGUCCGUGAGGACGAAACAG, the self-cleavage is 0.333.

ACCGGAUGUGCUUUCCGAUCUGAUGAGUCCGUGAGGACAAAACAG: the self-cleavage worked out at 0.339. Turning to ACCGGAUGUGCUUUCCGAUCUGAUGAGUCCGUGAGGACCAAACAG, the self-cleavage was 0.326. With ACCGGAUGUGCUUUCCGAUCUGAUGAGUCCGUGAGGACUAAACAG the figure was 0.303; with ACCGGAUGUGCUUUCCGCUCUGAUGAGUCCGUGAGGACCAAACAG, 0.289; with ACCGGAUGUGCUUUCCGCUCUGAUGAGUCCGUGAGGACUAAACAG, 0.372. For ACCGGAUGUGCUUUCCGCUCUGAUGAGUCCGUGAGGACAAAACAG, the self-cleavage was determined as 0.289. With ACCGGAUGUGCUUUCCGCUCUGAUGAGUCCGUGAGGACGAAAGAG the figure was 0.358; with ACCGGAUGUGCUUUCCGCUCUGAUGAGUCCGUGAGGACGAAAUAG, 0.292. Take ACCGGAUGUGCUUUCCGCUCUGAUGAGUCCGUGAGGACGAAAAAG: the self-cleavage stood at 0.327.

For ACCGGAUGUGCUUUCCGCUCUGAUGAGUCCGUGAGAACGAAACAG, the self-cleavage was determined as 0.347. On to ACCGGAUGUGCUUUCCGCUCUGAUGAGUCCGUGAGCACGAAACAG, for which the self-cleavage was 0.352. With ACCGGAUGUGCUUUCCGCUCUGAUGAGUCCGUGAGUACGAAACAG the figure was 0.337; with ACCGGAUGUGCUUUCCGCUCUGAUGAGUCCGUUAGGACGAAACAG, 0.708; with ACCGGAUGUGCUUUCCGCUCUGAUGAGUCCGUCAGGACGAAACAG, 0.616. Consider ACCGGAUGUGCUUUCCGCUCUGAUGAGUCCGUAAGGACGAAACAG, for which the self-cleavage stood at 0.765. The result for ACCGGAUGUGCUUUCCGCUCUGAUGAGUCCGUGAGGACGAAACCG reads 0.435; that for ACCGGAUGUGCUUUCCGCUCUGAUGAGUCCGUGAGGACGAAACUG, 0.354; that for ACCGGAUGUGCUUUCCGCUCUGAUGAGUCCGUGAGGACGAAACGG, 0.643. The result for ACCGGAUGUGCUUUCCGAGCUGAUGAGUCCGUGAGGACGAAACAG reads 0.359. With ACCGGAUGUGCUUUCCGACCUGAUGAGUCCGUGAGGACGAAACAG the figure was 0.402; with ACCGGAUGUGCUUUCCGAACUGAUGAGUCCGUGAGGACGAAACAG, 0.367. Consider ACCGGAUGUGCUUUCCGCUCUGAUGCGUCCGUGAGGACGAAACAG, for which the self-cleavage was 0.354.

With ACCGGAUGUGCUUUCCGCUCUGAUGGGUCCGUGAGGACGAAACAG, the self-cleavage was found to be 0.319. The result for ACCGGAUGUGCUUUCCGCUCUGAUGUGUCCGUGAGGACGAAACAG reads 0.334.

As to ACCGGAUGUGCUUUCCGCUCUGAUGAGUGCGUGAGGACGAAACAG, the self-cleavage turned out to be 0.302. For the variant ACCGGAUGUGCUUUCCGCUCUGAUGAGUACGUGAGGACGAAACAG, the self-cleavage stood at 0.374.

In the case of ACCGGAUGUGCUUUCCGCUCUGAUGAGUUCGUGAGGACGAAACAG, the self-cleavage amounted to 0.506. The result for ACCGGAUGUGCUUUCCGAUCUGAUGAGUCCGAGAGGACGAAACAG reads 0.778; that for ACCGGAUGUGCUUUCCGAUCUGAUGAGUCCGCGAGGACGAAACAG, 0.731. For the variant ACCGGAUGUGCUUUCCGAUCUGAUGAGUCCGGGAGGACGAAACAG, the self-cleavage is 0.744. Take ACCGGAUGUGCUUUCCGCUCUGAGGAGUCCGUGAGGACGAAACAG: the self-cleavage is 0.365. ACCGGAUGUGCUUUCCGCUCUGACGAGUCCGUGAGGACGAAACAG: the self-cleavage was 0.477. As for ACCGGAUGUGCUUUCCGCUCUGAAGAGUCCGUGAGGACGAAACAG, the self-cleavage turned out to be 0.617. With ACCGGAUGUGCUUUCCGCUCUGAUGAGUCCGUGAGGACGUAACAG the figure was 0.339; with ACCGGAUGUGCUUUCCGCUCUGAUGAGUCCGUGAGGACGCAACAG, 0.389.

In the case of ACCGGAUGUGCUUUCCGCUCUGAUGAGUCCGUGAGGACGGAACAG, the self-cleavage came to 0.369. Regarding ACCGGAUGUGCUUUCCGAUCUGAUGAGUCCGUGAGCACGAAACAG, the self-cleavage stood at 0.299.

Consider ACCGGAUGUGCUUUCCGAUCUGAUGAGUCCGUGAGAACGAAACAG, for which the self-cleavage worked out at 0.544. Turning to ACCGGAUGUGCUUUCCGAUCUGAUGAGUCCGUGAGUACGAAACAG, the self-cleavage was 0.496. For ACCGGAUGUGCUUUCCGCUCUGAUGAGACCGUGAGGACGAAACAG, the self-cleavage amounted to 0.415. ACCGGAUGUGCUUUCCGAUCUGAUGAAUCCGUGAGGACGAAACAG: the self-cleavage was found to be 0.519. With ACCGGAUGUGCUUUCCGAUCUGAUGACUCCGUGAGGACGAAACAG the figure was 0.43.

ACCGGAUGUGCUUUCCGAUCUGAUGAUUCCGUGAGGACGAAACAG: the self-cleavage was found to be 0.393. The result for ACCGGAUGUGCUUUCCGCUCUGAUGACUCCGUGAGGACGAAACAG reads 0.402; that for ACCGGAUGUGCUUUCCGCUCUGAUGAAUCCGUGAGGACGAAACAG, 0.416. Regarding ACCGGAUGUGCUUUCCGCUCUGAUGAUUCCGUGAGGACGAAACAG, the self-cleavage was 0.298. The result for ACCGGAUGUGCUUUCCGCUCUGAUGAGUCUGUGAGGACGAAACAG reads 0.606; that for ACCGGAUGUGCUUUCCGCUCUGAUGAGUCAGUGAGGACGAAACAG, 0.451. For ACCGGAUGUGCUUUCCGCUCUGAUGAGUCGGUGAGGACGAAACAG, the self-cleavage amounted to 0.372. The result for ACCGGAUGUGCUUUCCGCUUUGAUGAGUCCGUGAGGACGAAACAG reads 0.339. With ACCGGAUGUGCUUUCCGCUAUGAUGAGUCCGUGAGGACGAAACAG the figure was 0.285.

As to ACCGGAUGUGCUUUCCGCUGUGAUGAGUCCGUGAGGACGAAACAG, the self-cleavage was 0.34. ACCGGAUGUGCUUUCCGAUCUGAUUAGUCCGUGAGGACGAAACAG: the self-cleavage was 0.348. As for ACCGGAUGUGCUUUCCGCUCUGAUGAGUCCGUGAGGUCGAAACAG, the self-cleavage is 0.483.

In the case of ACCGGAUGUGCUUUCCGCUCUGAUGAGUCCGUGAGGGCGAAACAG, the self-cleavage is 0.398. With ACCGGAUGUGCUUUCCGCUCUGAUGAGUCCGUGAGGCCGAAACAG, the self-cleavage was 0.373.
